The record followed here is PMC9972960.

In experiment [1] the target is purified vaccine protein with HA from influenza A/PR/8/1934 (H1N1), without the C-terminal trimerization domain (influenza A/PR/8/1934 (H1N1)) (UniProt P03452). In words: SEC.
For experiment [2] the target is unchanged. In words: native gel or EMSA.

Turning to “purified vaccine protein with HA from influenza A/PR/8/1934 (H1N1), without the C-terminal trimerization domain (from UniProt P03452 18-541)”, the stoichiometry N in experiment [1] and in experiment [2] was 3 in each case.
